Assay results reported in patent US11261216B2, “Engineered hepatitis B core polypeptide” (priority 2018, dated 2022).

Experiment: VLP assembly induced by NaCl, quantified by size-exclusion chromatography
Type: physicochemical
Experimental: Improved VLP purification method. HepBc proteins were expressed using standard cell-free protein synthesis reactions as described above. The improved purification strategy first used Sephadex G25 columns to exchange the samples into a 50 mM Tris, 25 mM Imidazole, 0.1% Tween-20, pH 7.4 buffer solution. Insolubles were removed using centrifugation at 10 k×g for 15 min before loading the soluble fraction onto the Ni-NTA column. After loading, the Ni-NTA column was washed with 4 column volumes (CV) of 50 mM Tris, 25 mM Imidazole, 0.1% Tween-20, pH 7.4 and then eluted with 50 mM Tris, 250 mM Imidazole, 0.1% Tween-20, pH 7.4 (5CV total). […] Assembled VLPs were quantified and purified by applying 200 μL of the samples to 2.2 mL Sepharose 6 Fast Flow size-exclusion chromatographic resin, eluting 24×150 μL fractions. Protein concentration in each fraction was determined by measuring the radioactivity using liquid scintillation counting. […]
VLP purification method. […] Assembled VLPs were quantified and purified by applying 200 μL of the samples to 2.2 mL Sepharose 6 Fast Flow size-exclusion column, applying the assembly buffer, and collecting 24×150 […]. Protein concentration in each fraction was determined by measuring the radioactivity using liquid scintillation counting. […]

Molecule | NaCl concentration (ionic strength) required for VLP assembly [M]
wild-type: Wild-type truncated Hepatitis B core protein HBc149, SEQ ID NO: 1 | 0.5
HP spike transplant: HepBc with HP series of amino acid changes in the spike region; HBc(HP) is SEQ ID NO: 3 (protein) MDIDPYKEFGATVELLSFLPSDFFPSVRCLLDTAAALYRDALESPEHCSPHHTALRQAVSCWREVTDFGDWVGNNMQDQAARDLVVNYVNANIGLKIRQLLWFHISCLTFGRETVLEYLVSFGVWICTPPAYRPPNAPILSTLPETTVV | 1.5
